Data set [1] has as its target recombinant human ADAM10 (amino residues 18-672, Cat. No 936-AD) (human) (UniProt O14672).
Data set [2] deals with 5 inhibiting periplasm out of 27 periplasm tested for ADAM10.
Data set [3] concerns the target 6 activating periplasm out of 27 periplasm tested for ADAM10.
Data set [4] has as its target 7 inhibiting periplasm out of 31 periplasm tested for ADAM9.
The target of data set [5] is 9 activating periplasm out of 31 periplasm tested for ADAM9.

Changes are numbered by the printed parent chain.

B1: Nanobody 33-D1 (VHH)
VHH: EVQLVESGGGLVQAGDSLRLSCAATGRTFSSDAMGWFRQAPGKERAFVAGINYNSVYRYYTDSVEGRFTISRDNAKNTVYLQMNSLKPEDTAVYYCAADSDYYSLIGGRPVNYWGQGTQVTVSS
On to B1, for which the Percent activity compared to no periplasm (50x excess) in data set [1] was 85.6 percent.

B2: Nanobody 39-D8, E8 (VHH)
VHH: EVQLVESGGGLVRARGSLRLSCAASGGTFSRYAMGWFRQAPGKEREFVAAISRSGGNTYFTESVKGRFTMSRDNAKNTVYLQMNSLKPEDTAVYYCAARSAAVYTTTVYLVDFEYNYWGQGTQVTVSS
In the case of B2, the Percent activity compared to no periplasm (50x excess) in data set [1] was determined as 76.4 percent.

B3: Nanobody 39-D1 (VHH)
VHH: KVQLVESGGGLVQAGGSLRLSCAASGNIFINNAVGWYRQAPGKQREMVAAMLSGGSTNYADSVKGRFTISRDNAKNTVYLQMNSLKPEDTAVYYCNVQVNGTWARWGQGTQVTVSS
In the case of B3, the Percent activity compared to no periplasm (50x excess) in data set [1] came out at 84.6 percent.

B4: recombinant human ADAM10 (amino residues 18-672, Cat. No 936-AD) (protein)
chain: GGQYGNPLNKYIRHYEGLSYNVDSLHQKHQRAKRAVSHEDQFLRLDFHAHGRHFNLRMKRDTSLFSDEFKVETSNKVLDYDTSHIYTGHIYGEEGSFSHGSVIDGRFEGFIQTRGGTFYVEPAERYIKDRTLPFHSVIYHEDDINYPHKYGPQGGCADHSVFERMRKYQMTGVEEVTQIPQEEHAANGPELLRKKRTTSAEKNTCQLYIQTDHLFFKYYGTREAVIAQISSHVKAIDTIYQTTDFSGIRNISFMVKRIRINTTADEKDPTNPFRFPNIGVEKFLELNSEQNHDDYCLAYVFTDRDFDDGVLGLAWVGAPSGSSGGICEKSKLYSDGKKKSLNTGIITVQNYGSHVPPKVSHITFAHEVGHNFGSPHDSGTECTPGESKNLGQKENGNYIMYARATSGDKLNNNKFSLCSIRNISQVLEKKRNNCFVESGQPICGNGMVEQGEECDCGYSDQCKDECCFDANQPEGRKCKLKPGKQCSPSQGPCCTAQCAFKSKSEKCRDDSDCAREGICNGFTALCPASDPKPNFTDCNRHTQVCINGQCAGSICEKYGLEECTCASSDGKDDKELCHVCCMKKMDPSTCASTGSVQWSRHFSGRTITLQPGSPCNDFRGYCDVFMRCRLVDADGPLARLKKAIFSPELYENIAE
For the molecule B4, the “ADAM protease assay, fluorogenic peptide substrate ES003, periplasms containing Nanobodies” value is 5 inhibited significantly (less than 40% residual activity) in data set [2] and 6 activated significantly (more than 200% initial activity) in data set [3].

B5: Nanobody 39-B1 (VHH)
VHH: EVQLVESGGGLVQAGGSLRLSCARSGRISNINIMAWYRQAPGKTRDMVAAIIGDSTNYADSVKGRFTISRDNAKNTVYLHMNRLKPEDTGVYYCKISGVDWGQGTQVTVSS
For the molecule B5, in data set [1], the Percent activity compared to no periplasm (50x excess) amounted to 67.1 percent.

B6: Nanobody 39-C8 (VHH)
VHH: EMQLVESGGGLVQTGGSLRLSCAASGRTFTSYCVGWWRQAPGKERDVVAAITRGSNSTDYVDSVKGRFTISRDNAENTVYLQMNSLKPEDTAVYYCAADINCRNLYTGRPEYWGQGTQVTVSS
For B6, the Percent activity compared to no periplasm (50x excess) in data set [1] is 194 percent.

B7: Nanobody 39-F1 (VHH)
VHH: EVQLVESGGGLVQAGGSLRLSCAASERIFSTYFMGWFRQAPGKEREFVAFISGNGGSTDYADSVKGRFAISRDNVKNTLYLQMSSLKPDDTAVYYCAVAGRQIKSTWGYWGQGTQVTVSS
As to B7, the Percent activity compared to no periplasm (50x excess) in data set [1] was found to be 144 percent.

B8: Nanobody 32-E1, E6, 39-A2 (VHH)
VHH: B7 VHH with G108D
In the case of B8, the Percent activity compared to no periplasm (50x excess) in data set [1] was determined as 163 percent.

B9: recombinant human ADAM9 (amino residues 1-697, R&D Systems, Cat. No. 939-AD) (protein)
chain: AARPGFQQTSHLSSYEIITPWRLTRERREAPRPYSKQVSYVIQAEGKEHIIHLERNKDLLPEDFVVYTYNKEGTLITDHPNIQNHCHYRGYVEGVHNSSIALSDCFGLRGLLHLENASYGIEPLQNSSHFEHIIYRMDDVYKEPLKCGVSNKDIEKETAKDEEEEPPSMTQLLRRRRAVLPQTRYVELFIVVDKERYDMMGRNQTAVREEMILLANYLDSMYIMLNIRIVLVGLEIWTNGNLINIVGGAGDVLGNFVQWREKFLITRRRHDSAQLVLKKGFGGTAGMAFVGTVCSRSHAGGINVFGQITVETFASIVAHELGHNLGMNHDDGRDCSCGAKSCIMNSGASGSRNFSSCSAEDFEKLTLNKGGNCLLNIPKPDEAYSAPSCGNKLVDAGEECDCGTPKECELDPCCEGSTCKLKSFAECAYGDCCKDCRFLPGGTLCRGKTSECDVPEYCNGSSQFCQPDVFIQNGYPCQNNKAYCYNGMCQYYDAQCQVIFGSKAKAAPKDCFIEVNSKGDRFGNCGFSGNEYKKCATGNALCGKLQCENVQEIPVFGIVPAIIQTPSRGTKCWGVDFQLGSDVPDPGMVNEGTKCGAGKICRNFQCVDASVLNYDCDVQKKCHGHGVCNSNKNCHCENGWAPPNCETKGYGGSVDSGPTYNEMNTALRD
As for B9, the “ADAM protease assay, fluorogenic peptide substrate ES003, periplasms containing Nanobodies” value in data set [4] was 7 showed significant inhibition; in data set [5], 9 were significantly activating.

B10: Nanobody 33-A1 (VHH)
VHH: EVQLVESGGGLVQAGGSLRLSCAASGDTFSRYSMGWFRQAPGKEREFVVYITRSGRTTYYQDSVKGRFTISRDNAKNTVYLQMNSLKPEDTAVYYCAAMRSGNVRYPERYDYWGQGTQVTVSS
Take B10: in data set [1], the Percent activity compared to no periplasm (50x excess) was 86.5 percent.
